{"source": "the supplement of paper PMC10567573", "parents": {"B1": {"name": "KLHL13 (parent)", "chain": "TGEFLKLPFERLAFVLSSNSLKHC"}, "B2": {"name": "ALDH8A1 (parent)", "chain": "FTGSQPTAERITQLSAPHCKKLSL"}}}
{"variants_of": "B1", "test": "protein stability index of a GFP-peptide fusion (GPS, HEK-293T) (PSI 1-6); higher = more stable", "details": "c terminus: a fixed tail appended"}
{"variant": "TGEFLKLPFERLAFVLSSNSVKHC", "protein stability index": 1.72}
{"variant": "TGEFLKLPFERLAFVLSSNSYKHC", "protein stability index": 2.33}
{"variant": "TGEFLKLPFERLAFVLSSNSTKHC", "protein stability index": 2.49}
{"variant": "TGEFLKLPFERLAFVLSSNSSKHC", "protein stability index": 1.44}
{"variant": "TGEFLKLPFERLAFVLSSNSRKHC", "protein stability index": 1.63}
{"variant": "TGEFLKLPFERLAFVLSSNSQKHC", "protein stability index": 1.91}
{"variant": "TGEFLKLPFERLAFVLSSNSLKMC", "protein stability index": 2.02}
{"variant": "TGEFLKLPFERLAFVLSSNSLKCC", "protein stability index": 2.87}
{"variant": "TGEFLKLPFERLAFVLSSNSLKPC", "protein stability index": 1.85}
{"variant": "TGEFLKLPFERLAFVLSSNSLKSC", "protein stability index": 4.04}
{"variant": "TGEFLKLPFERLAFVLSSNSLKNC", "protein stability index": 2.42}
{"variant": "TGEFLKLPFERLAFVLSSNSLKWC", "protein stability index": 1.88}
{"variant": "TGEFLKLPFERLAFVLSSNSLKYC", "protein stability index": 3.32}
{"variant": "TGEFLKLPFERLAFVLSSNSLKDC", "protein stability index": 2.27}
{"variant": "TGEFLKLPFERLAFVLSSNSLKQC", "protein stability index": 4.44}
{"variant": "TGEFLKLPFERLAFVLSSNSLKVC", "protein stability index": 2.8}
{"variant": "TGEFLKLPFERLAFVLSSNSLKKC", "protein stability index": 2.49}
{"variant": "TGEFLKLPFERLAFVLSSNSLKTC", "protein stability index": 2.17}
{"variant": "TGEFLKLPFERLAFVLSSNSLKRC", "protein stability index": 1.99}
{"variant": "TGEFLKLPFERLAFVLSSNSLKHV", "protein stability index": 2.76}
{"variant": "TGEFLKLPFERLAFVLSSNSLKHE", "protein stability index": 1.81}
{"variant": "TGEFLKLPFERLAFVLSSNSLKHA", "protein stability index": 1.75}
{"variant": "TGEFLKLPFERLAFVLSSNSLKHK", "protein stability index": 1.61}
{"variant": "TGEFLKLPFERLAFVLSSNSLKHL", "protein stability index": 2.62}
{"variant": "TGEFLKLPFERLAFVLSSNSLKHF", "protein stability index": 3.88}
{"variant": "TGEFLKLPFERLAFVLSSNSLKHW", "protein stability index": 1.03}
{"variant": "TGEFLKLPFERLAFVLSSNSLKHM", "protein stability index": 2.65}
{"variant": "TGEFLKLPFERLAFVLSSNSLKHQ", "protein stability index": 1.6}
{"variant": "TGEFLKLPFERLAFVLSSNSLKHH", "protein stability index": 2.56}
{"variant": "TGEFLKLPFERLAFVLSSNSLKHR", "protein stability index": 2.4}
{"variant": "TGEFLKLPFERLAFVLSSNSLKHT", "protein stability index": 2.1}
{"variant": "TGEFLKLPFERLAFVLSSNSLKHY", "protein stability index": 3.19}
{"variant": "TGEFLKLPFERLAFVLSSNSLKHN", "protein stability index": 2.94}
{"variant": "TGEFLKLPFERLAFVLSSNSLKHG", "protein stability index": 1.9}
{"variant": "TGEFLKLPFERLAFVLSSNSLKHD", "protein stability index": 2.13}
{"variant": "TGEFLKLPFERLAFVLSSNSLKHI", "protein stability index": 4.16}
{"variant": "TGEFLKLPFERLAFVLSSNSLKHS", "protein stability index": 1.76}
{"variant": "TGEFLKLPFERLAFVLSSNSLWHC", "protein stability index": 3.33}
{"variant": "TGEFLKLPFERLAFVLSSNSLQHC", "protein stability index": 4.87}
{"variant": "TGEFLKLPFERLAFVLSSNSLTHC", "protein stability index": 2.34}
{"variant": "TGEFLKLPFERLAFVLSSNSLVHC", "protein stability index": 3.78}
{"variant": "TGEFLKLPFERLAFVLSSNSLLHC", "protein stability index": 3.44}
{"variant": "TGEFLKLPFERLAFVLSSNSLCHC", "protein stability index": 4.71}
{"variant": "TGEFLKLPFERLAFVLSSNSLEHC", "protein stability index": 2.2}
{"variant": "TGEFLKLPFERLAFVLSSNSLMHC", "protein stability index": 3.25}
{"variant": "TGEFLKLPFERLAFVLSSNSLSHC", "protein stability index": 4.04}
{"variant": "TGEFLKLPFERLAFVLSSNSLGHC", "protein stability index": 2.18}
{"variant": "TGEFLKLPFERLAFVLSSNSLAHC", "protein stability index": 2.4}
{"variant": "TGEFLKLPFERLAFVLSSNSLNHC", "protein stability index": 4.57}
{"variant": "TGEFLKLPFERLAFVLSSNSLYHC", "protein stability index": 1.96}
{"variant": "TGEFLKLPFERLAFVLSSNSLIHC", "protein stability index": 2.96}
{"variant": "TGEFLKLPFERLAFVLSSNSLPHC", "protein stability index": 3.24}
{"variant": "TGEFLKLPFERLAFVLSSNSLDHC", "protein stability index": 2.77}
{"variant": "TGEFLKLPFERLAFVLSSNSLRHC", "protein stability index": 2.48}
{"variants_of": "B2", "test": "protein stability index of a GFP-peptide fusion (GPS, HEK-293T) (PSI 1-6); higher = more stable", "details": "c terminus: a fixed tail appended"}
{"variant": "MTGSQPTAERITQLSAPHCKKLSL", "protein stability index": 3.62}
{"variant": "VTGSQPTAERITQLSAPHCKKLSL", "protein stability index": 3.82}
{"variant": "HTGSQPTAERITQLSAPHCKKLSL", "protein stability index": 4.18}
{"variant": "STGSQPTAERITQLSAPHCKKLSL", "protein stability index": 3.92}
{"variant": "ITGSQPTAERITQLSAPHCKKLSL", "protein stability index": 3.86}
{"variant": "LTGSQPTAERITQLSAPHCKKLSL", "protein stability index": 3.65}
{"variant": "PTGSQPTAERITQLSAPHCKKLSL", "protein stability index": 4.14}
{"variant": "ATGSQPTAERITQLSAPHCKKLSL", "protein stability index": 4.03}
{"variant": "CTGSQPTAERITQLSAPHCKKLSL", "protein stability index": 3.48}
{"variant": "KTGSQPTAERITQLSAPHCKKLSL", "protein stability index": 3.96}
{"variant": "YTGSQPTAERITQLSAPHCKKLSL", "protein stability index": 2.47}
{"variant": "DTGSQPTAERITQLSAPHCKKLSL", "protein stability index": 4.38}
{"variant": "TTGSQPTAERITQLSAPHCKKLSL", "protein stability index": 4.27}
{"variant": "RTGSQPTAERITQLSAPHCKKLSL", "protein stability index": 3.78}
{"variant": "GTGSQPTAERITQLSAPHCKKLSL", "protein stability index": 4.34}
{"variant": "WTGSQPTAERITQLSAPHCKKLSL", "protein stability index": 3.35}
{"variant": "QTGSQPTAERITQLSAPHCKKLSL", "protein stability index": 4.31}
{"variant": "ETGSQPTAERITQLSAPHCKKLSL", "protein stability index": 4.26}
{"variant": "NTGSQPTAERITQLSAPHCKKLSL", "protein stability index": 4.34}
{"variant": "FTGSQPWAERITQLSAPHCKKLSL", "protein stability index": 1.2}
{"variant": "FTGSQPKAERITQLSAPHCKKLSL", "protein stability index": 2.32}
{"variant": "FTGSQPDAERITQLSAPHCKKLSL", "protein stability index": 2.98}
{"variant": "FTGSQPCAERITQLSAPHCKKLSL", "protein stability index": 2}
{"variant": "FTGSQPSAERITQLSAPHCKKLSL", "protein stability index": 2.08}
{"variant": "FTGSQPGAERITQLSAPHCKKLSL", "protein stability index": 2.11}
{"variant": "FTGSQPYAERITQLSAPHCKKLSL", "protein stability index": 2.61}
{"variant": "FTGSQPRAERITQLSAPHCKKLSL", "protein stability index": 2.55}
{"variant": "FTGSQPMAERITQLSAPHCKKLSL", "protein stability index": 2.12}
{"variant": "FTGSQPQAERITQLSAPHCKKLSL", "protein stability index": 2.86}
{"variant": "FTGSQPPAERITQLSAPHCKKLSL", "protein stability index": 2.67}
{"variant": "FTGSQPFAERITQLSAPHCKKLSL", "protein stability index": 2.99}
{"variant": "FTGSQPHAERITQLSAPHCKKLSL", "protein stability index": 2.02}
{"variant": "FTGSQPAAERITQLSAPHCKKLSL", "protein stability index": 3.05}
{"variant": "FTGSQPIAERITQLSAPHCKKLSL", "protein stability index": 2.39}
{"variant": "FTGSQPLAERITQLSAPHCKKLSL", "protein stability index": 2.27}
{"variant": "FTGSQPVAERITQLSAPHCKKLSL", "protein stability index": 2}
{"variant": "FTGSQPEAERITQLSAPHCKKLSL", "protein stability index": 2.62}
{"variant": "FTGSQPNAERITQLSAPHCKKLSL", "protein stability index": 2.83}
{"variant": "FTGSQPTCERITQLSAPHCKKLSL", "protein stability index": 2.09}
{"variant": "FTGSQMTAERITQLSAPHCKKLSL", "protein stability index": 2.56}
